This is an account of results in patent US20030022247A1, “Substance which inhibits binding of information transfer molecule for 1175-tyrosine phosphorylated KDR/FLK-1 and usages of the same” (priority 2000, published 2003).

Square brackets hold non-standard residues; d marks the D form. Ends that are not written are not given here. pY = N[C@@H](Cc1ccc(OP(=O)(O)O)cc1)C(=O)O

In one experiment the target is Flt-1 (Homo sapiens, UniProt P17948). The settings on record: VEGF binding to Flt-1; cited from earlier work.
Experiment [1] concerns various cancer cells transplanted into mice. The settings on record: cited from earlier work.
The target in experiment [2] is T1, 1175-tyrosine phosphorylated KDR/Flk-1 (Homo sapiens, UniProt P35968).
T1 construct: expressing endogenous KDR/Flk-1; host or cells: human umbilical cord vein endothelial cells (HUVEC)
As to the kind of experiment: Tissue immunostaining of human umbilical cord vein endothelial cells. In kind it is cell-based. Conditions: 1 μg/ml peptide; cells 5 minutes after the VEGF stimulation. As for the experimental part:
After blocking the fixed cells for 30 minutes with PBS containing 1% goat serum, tissue immunostaining was carried out using the anti-PY1175 antibody. The detection was carried out by fluorescence microscopic observation 30 minutes after treatment with an FITC-labeled anti-rabbit IgG antibody (manufactured by Cappel) diluted to 1/100. […] Accordingly, the anti-PY1175 antibody was useful for the detection of the 1175-tyrosine phosphorylation of KDR/Flk-1 by not only immunoblotting but also tissue immunostaining.

In experiment [3] the target is T2, binding of the auto-phosphorylated KDR/Flk-1 and PLC-γ (Homo sapiens, UniProt P19174+P35968).
T2 construct: a fusion protein of GST and SH2 domain of the C-terminal side of PLC-γ (GST-PLC-γ C-SH2); host or cells: NIH3T3-KDR cell extract (KDR/Flk-1)
As to the kind of experiment: In vitro binding of GST-PLC-γ C-SH2 to KDR/Flk-1 from NIH3T3-KDR cell extract. The settings on record: coexisting with GST-PLC-γ C-SH2 beads and extract of VEGF-stimulated NIH3T3-KDR. In kind it is biochemical. As to the method: Onto glutathione-Sepharose 4B beads (manufactured by Amersham Pharmacia Biotech), 1.5 μg of GST, a fusion protein of GST and SH2 domain (2 domains) of PLC-γ (GST-PLC-γ SH2-SH2), a fusion protein of GST and SH2 domain of the N-terminal side of PLC-γ (GST-PLC-γ N-SH2) and a fusion protein of GST and SH2 domain of the C-terminal side of PLC-γ (GST-PLC-γ C-SH2) (all manufactured by Santa Cruz Biotechnology Inc.) was immobilized respectively, and the cell extracts were added thereto, followed by incubation at 4° C. for 2 hours. The beads were washed three times with a cooled cell extraction buffer and heated in an SDS sample buffer to dissolve the protein bound to the beads, and then SDS-PAGE was carried out. The KDR/Flk-1 bound to each of the added proteins was detected by immunoblotting using the anti-KDR/Flk-1 antibody. The KDR/Flk-1 was detected in the VEGF-stimulated cell with GST-PLC-γ SH2-SH2 and GST-PLC-γ C-SH2, but KDR/Flk-1 was not detected with GST-PLC-γ N-SH2.
The same test of (2) was carried out by allowing the anti-PY1175 antibody and the PY1175 peptide to coexist at the time of the reaction of GST-PLC-γ C-SH2-immobilized beads with the cell extract. As a result, KDR/Flk-1 was not detected even in the VEGF-stimulated cell, and binding of the auto-phosphorylated KDR/Flk-1 and PLC-γ was inhibited by the anti-PY1175 antibody and the PY1175 peptide.

In experiment [4] the target is T3, mutated KDR/Flk-1 Y1175F (1175-tyrosine replaced by phenylalanine) (human, UniProt P35968 20-1356).
T3 construct: Expressed in MSS31 cells by an adenovirus vector, VEGF-stimulated; cell extract; Phosphorylation at other tyrosines not specified
As to the kind of experiment: immunoprecipitation with anti-KDR/Flk-1 antibody, immunoblotting with anti-PLC-γ antibody.

With “vascular endothelial growth factor [VEGF]”, the equilibrium dissociation constant (Kd) at Flt-1 was 0.02 nM.

With `Cc1cc(C)c(/C=C2\C(=O)Nc3ccccc32)[nH]1` [SU5416], the “angiogenesis, growth or metastasis of cancer cells” value in experiment [1] was “inhibits angiogenesis, growth or metastasis”.

Take “PY1175 peptide: SEQ ID NO:1: cysteine added to N-terminus of positions 1171 to 1180 of human KDR/Flk-1, tyrosine 1175 phosphorylated (CDGKD[pY]IVLPI)”: the “inhibition of anti-PY1175 antibody staining by coexisting peptide” value in experiment [2] is given as “staining was inhibited”. The “inhibition of binding of auto-phosphorylated KDR/Flk-1 and PLC-γ (GST-PLC-γ C-SH2)” value in experiment [3] was “inhibited”.

On to “Y1175 peptide: SEQ ID NO:2: the same amino acid sequence of the PY1175, but the tyrosine is not phosphorylated (CDGKDYIVLPI; a peptide SEQ ID NO1 without phosphorylation) [reference compound]”, for which the “inhibition of binding of auto-phosphorylated KDR/Flk-1 and PLC-γ (GST-PLC-γ C-SH2)” value in experiment [3] was “inhibition was not found”.

B1: phospholipase C-γ (PLC-γ) (enzyme, mouse, UniProt Q62077 2-1302, looked up)
chain: AGVATPCANGCGPGAPSEAEVLHLCRSLEVGTVMTLFYSKKSQRPERKTFQVKLETRQITWSRGADKIEGSIDIREIKEIRPGKTSRDFDRYQEDPAFRPDQSHCFVILYGMEFRLKTLSLQATSEDEVNMWIKGLTWLMEDTLQAATPLQIERWLRKQFYSVDRNREDRISAKDLKNMLSQVNYRVPNMRFLRERLTDLEQRSGDITYGQFAQLYRSLMYSAQKTMDLPFLETNALRTGERPEHCQVSLSEFQQFLLEYQGELWAVDRLQVQEFMLSFLRDPLREIEEPYFFLDELVTFLFSKENSVWNSQLDAVCPDTMNNPLSHYWISSSHNTYLTGDQFSSESSLEAYARCLRMGCRCIELDCWDGPDGMPVIYHGHTLTTKIKFSDVLHTIKEHAFVASEYPVILSIEDHCSIAQQRNMAQHFRKVLGDTLLTKPVDIAADGLPSPNQLRRKILIKHKKLAEGSAYEEVPTSVMYSENDISNSIKNGILYLEDPVNHEWYPHYFVLTSSKIYYSEETSSDQGNEDEEEPKEASSSTELHSSEKWFHGKLGAGRDGRHIAERLLTEYCIETGAPDGSFLVRESETFVGDYTLSFWRNGKVQHCRIHSRQDAGTPKFFLTDNLVFDSLYDLITHYQQVPLRCNEFEMRLSEPVPQTNAHESKEWYHASLTRAQAEHMLMRVPRDGAFLVRKRNEPNSYAISFRAEGKIKHCRVQQEGQTVMLGNSEFDSLVDLISYYEKHPLYRKMKLRYPINEEALEKIGTAEPDYGALYEGRNPGFYVEANPMPTFKCAVKALFDYKAQREDELTFTKSAIIQNVEKQDGGWWRGDYGGKKQLWFPSNYVEEMINPAVLEPEREHLDENSPLGDLLRGVLDVPACQIAIRPEGKNNRLFVFSISMPSVAQWSLDVAADSQEELQDWVKKIREVAQTADARLTEGKMMERRKKIALELSELVVYCRPVPFDEEKIGTERACYRDMSSFPETKAEKYVNKAKGKKFLQYNRLQLSRIYPKGQRLDSSNYDPLPMWICGSQLVALNFQTPDKPMQMNQALFMAGGHCGYVLQPSTMRDEAFDPFDKSSLRGLEPCVICIEVLGARHLPKNGRGIVCPFVEIEVAGAEYDSTKQKTEFVVDNGLNPVWPAKPFHFQISNPEFAFLRFVVYEEDMFSDQNFLAQATFPVKGLKTGYRAVPLKNNYSEDLELASLLIKIDIFPAKENGDLSPFSGISLRERASDASSQLFHVRAREGSFEARYQQPFEDFRISQEHLADHFDSRERSTSDGPSSATNLIEDPLHDKLWKCSL
notes: whole, on cells; Endogenous intracellular PLC-γ co-precipitated with KDR/Flk-1 from MSS31 cell extracts
As for B1, the binding result in experiment [4] is listed as “no binding”.
